Target: full length STAT6 (human) (UniProt P42226)
Assay: cell-based or functional assay

Sequence of full length STAT6 (human) (P42226 2-847): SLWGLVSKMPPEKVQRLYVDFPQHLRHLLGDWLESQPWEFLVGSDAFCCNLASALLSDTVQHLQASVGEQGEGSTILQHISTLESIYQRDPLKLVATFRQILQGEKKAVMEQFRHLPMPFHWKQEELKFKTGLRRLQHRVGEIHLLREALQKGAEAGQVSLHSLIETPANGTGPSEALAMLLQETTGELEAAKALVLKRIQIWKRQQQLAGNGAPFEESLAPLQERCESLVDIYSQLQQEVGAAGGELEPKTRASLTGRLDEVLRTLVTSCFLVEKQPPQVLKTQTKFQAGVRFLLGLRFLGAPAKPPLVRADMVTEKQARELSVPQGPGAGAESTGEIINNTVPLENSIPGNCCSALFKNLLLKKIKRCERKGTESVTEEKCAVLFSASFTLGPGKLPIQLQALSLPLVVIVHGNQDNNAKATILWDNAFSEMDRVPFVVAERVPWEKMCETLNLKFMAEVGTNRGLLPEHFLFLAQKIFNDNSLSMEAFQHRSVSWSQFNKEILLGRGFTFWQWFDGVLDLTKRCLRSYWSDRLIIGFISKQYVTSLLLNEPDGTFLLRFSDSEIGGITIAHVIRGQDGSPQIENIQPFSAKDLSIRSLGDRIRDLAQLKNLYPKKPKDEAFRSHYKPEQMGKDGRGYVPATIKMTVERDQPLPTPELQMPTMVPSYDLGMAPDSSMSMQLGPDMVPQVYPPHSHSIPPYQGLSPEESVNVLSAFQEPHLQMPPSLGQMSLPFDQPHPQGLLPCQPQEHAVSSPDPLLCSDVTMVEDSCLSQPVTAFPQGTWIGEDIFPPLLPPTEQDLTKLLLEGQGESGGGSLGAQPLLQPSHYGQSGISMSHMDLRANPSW

In the case of “NCoA-1 (nuclear coactivator 1), full length (from UniProt P70365 2-1447)”, the luciferase reporter with multimerized STAT6 response elements, HepG2 cells, IL-4 induced is reported as less than 3 fold.

— patent US20030092619A1
